From US20060246421

B1: NS3 helicase (NS3h), wild type, hepatitis C virus (protein)
chain: AVDFVPVESMETTMRSPVFTDNSSPPAVPQTFQVAHLHAPTGSGKSTKVPAAYAAQGYKVLVLNPSVAATLGFGAYMSKAHGIDPNIRTGVRTITTGAPITYSTYGKFLADGGCSGGAYDIIICDECHSTDSTTILGIGTVLDQAETAGARLVVLATATPPGSVTVPHPNIEEVALSSTGEIPFYGKAIPIETIKGGRHLIFCHSKKKCDELAAKLSGLGLNAVAYYRGLDVSVIPTSGDVIVVATDALMTGFTGDFDSVIDCNTCVTQTVDFSLDPTFTIETTTVPQDAVSRSQRRGRTGRGRMGIYRFVTPGERPSGMFDSSVLCECYDAGCAWYELTPAETSVRLRAYLNTPGLPVCQDHLEFWESVFTGLTHIDAHFLSQTKQAGDNFPYLVAYQATVCARAQAPPPSWDQMWKCLIRLKPTLHGPTPLLYRLGAVQNEVTTTHPITKYIMACMSADLEVVT
  amplitude of single turnover DNA unwinding (processivity): 0.35 ± 0.01 nM

B2: NS3h KDA (D543K/H545D/Q549A mutant NS3 helicase) (protein)
chain: AVDFVPVESMETTMRSPVFTDNSSPPAVPQTFQVAHLHAPTGSGKSTKVPAAYAAQGYKVLVLNPSVAATLGFGAYMSKAHGIDPNIRTGVRTITTGAPITYSTYGKFLADGGCSGGAYDIIICDECHSTDSTTILGIGTVLDQAETAGARLVVLATATPPGSVTVPHPNIEEVALSSTGEIPFYGKAIPIETIKGGRHLIFCHSKKKCDELAAKLSGLGLNAVAYYRGLDVSVIPTSGDVIVVATDALMTGFTGDFDSVIDCNTCVTQTVDFSLDPTFTIETTTVPQDAVSRSQRRGRTGRGRMGIYRFVTPGERPSGMFDSSVLCECYDAGCAWYELTPAETSVRLRAYLNTPGLPVCQDHLEFWESVFTGLTHIKADFLSATKQAGDNFPYLVAYQATVCARAQAPPPSWDQMWKCLIRLKPTLHGPTPLLYRLGAVQNEVTTTHPITKYIMACMSADLEVVT
  amplitude of single turnover DNA unwinding (processivity): 0.21 ± 0.01 nM
